According to US20200268795A1, “INTERFERON-GAMMA ATTENUATES ANTI-TUMOR IMMUNE RESPONSE TO CHECKPOINT BLOCKADE” (The Regents of the University of California, priority 2017, published 2020):

B1: recombinant IFN-γ: Recombinant murine IFN-γ (Peprotech) (protein, UniProt P01580 23-155, looked up)
Interferon gamma: HGTVIESLESLNNYFNSSGIDVEEKSLFLDIWRNWQKDGDMKILQSQIISFYLRLFEVLKDNQAISNNISVIESHLITTFFSNSKAKKDAFMSIAKFEVNNPQVQRQAFNELIRVVHQLLPESSLRKRKRSRC

Assays:
[1] = test system: peripheral blood mononuclear cells from a melanoma patient; test: Patient PBMC stimulated in vitro with IFN-γ, apoptosis of CD8+ T cells; format: cell-based, human; conditions: different concentrations of IFN-γ; FIG. 5D
Source text: It has been shown that T cell homeostasis can be achieved by down-modulation of antigen specific T cell receptor (TCR) signaling (A. M. Gallegos et al., Nature immunology 17, 379-386 (2016)). To investigate whether combination treatment eliminated different T cell clones depended on the strength of TCR binding to cognate cancer epitope, we gated on CD8 subsets and investigated Spas-1hi versus Spas-11o CD8+ T cell clones (FIG. 12C). […] Finally, peripheral blood mononuclear cells from a melanoma patient that received nivolumab immunotherapy were isolated and cultured in vitro with different concentrations of IFN-γ stimulation.
Splenocytes were harvested from TRAMP-C2 bearing C57BL/6j mice on day 50 and T cells were purified by magnetic beads according to the manufacturer's protocol (Miltenyi Biotec Cat 130-095-130). Cells were checked for over 90% purity. Purified T cells were suspend in DMEM (UCSF cell culture core) +10% fetal bovine serum (Lonza Cat 14-501F) +1% penicillin/streptomycin (UCSF cell culture core)+murine 20 IU IL-2 (Peprotech Cat 212-12), and seeded in 96 wells at 2×10^5 cells per well. Recombinant murine IFN-γ (Peprotech Cat 212-12) was added into the wells at indicated concentrations. Cells were cultured for 12-72 hours and analyzed by flow cytometry. […] Cells were harvested and analyzed by flow cytometry 72 hours after incubation.

[2] = test system: T cells purified from TRAMP-C2 tumor bearing mice; test: In vitro T cell cultures stimulated with recombinant IFN-γ, active Caspase-3; format: cell-based; conditions: 72 hours after IFN-γ stimulation; FIG. 5B
Experimental: We hypothesized that the loss of Spas-1 specific CD8+ T cells may be related to increased IFN-γ signaling. […] To further evaluate the effects of IFN-γ on antigen specific T cells, T cells were purified from spleens of tumor-bearing mice and stimulated with different concentrations of recombinant IFN-γ in vitro (FIG. 5A). 72 hours after the stimulation, the level of active Caspase-3 expression was examined among T cells subsets, including naïvee T cells (CD45+CD8+CD44-CD62L+), antigen specific T cells (CD45+CD8+Spas-1), and effector T cells (CD45+CD8+CD44+CD62L-). Activated effector T cells and antigen specific T cells were more susceptible to IFN-γ induced active Caspase-3 expression compared to naïvee T cells (FIG. 5B; 2297.33±305.84 versus 2281.67±305.89 versus 723±17.54; P<0.001).
Splenocytes were harvested from TRAMP-C2 bearing C57BL/6j mice on day 50 and T cells were purified by magnetic beads according to the manufacturer's protocol (Miltenyi Biotec Cat 130-095-130). Cells were checked for over 90% purity. Purified T cells were suspend in DMEM (UCSF cell culture core) +10% fetal bovine serum (Lonza Cat 14-501F) +1% penicillin/streptomycin (UCSF cell culture core)+murine 20 IU IL-2 (Peprotech Cat 212-12), and seeded in 96 wells at 2×10^5 cells per well. Recombinant murine IFN-γ (Peprotech Cat 212-12) was added into the wells at indicated concentrations. Cells were cultured for 12-72 hours and analyzed by flow cytometry. For the patient sample, peripheral blood mononuclear cells (PBMCs) were isolated by Ficoll (Sigma Cat F4375) and PBMCs were seeded in 96 wells at 2×10^5 cells per well supplemented with 20 IU human IL-2 (Peprotech Cat 200-02). Recombinant human IFN-γ (Peprotech Cat 212-12) was added to the wells. Cells were harvested and analyzed by flow cytometry 72 hours after incubation.
The flow cytometry protocols were previously described (Sckisel et al., 2015). […] Flow cytometry was performed on Fortessa X20 Dual, and data analyzed by FlowJo software (TreeStar). […]

| Molecule | apoptosis (Annexin V) in CD8+ T cells [1] | active Caspase-3 expression, antigen specific T cells (CD45+CD8+Spas-1) [2] | active Caspase-3 expression, effector T cells (CD45+CD8+CD44+CD62L-) [2] | active Caspase-3 expression, naïve T cells (CD45+CD8+CD44-CD62L+) [2] |
| --- | --- | --- | --- | --- |
| IFN-γ: Recombinant human IFN-γ (Peprotech) added to patient PBMCs | gradual increase in apoptosis |  |  |  |
| B1 |  | 2281.67±305.89 | 2297.33±305.84 | 723±17.54 |
